Data on one molecule can be found in article PMC5156543 (Molecular Biology of the Cell, 2016).

The target of this test is T1, Vps35-3xHA (S. cerevisiae, UniProt P34110 1-944).
T1 sequence: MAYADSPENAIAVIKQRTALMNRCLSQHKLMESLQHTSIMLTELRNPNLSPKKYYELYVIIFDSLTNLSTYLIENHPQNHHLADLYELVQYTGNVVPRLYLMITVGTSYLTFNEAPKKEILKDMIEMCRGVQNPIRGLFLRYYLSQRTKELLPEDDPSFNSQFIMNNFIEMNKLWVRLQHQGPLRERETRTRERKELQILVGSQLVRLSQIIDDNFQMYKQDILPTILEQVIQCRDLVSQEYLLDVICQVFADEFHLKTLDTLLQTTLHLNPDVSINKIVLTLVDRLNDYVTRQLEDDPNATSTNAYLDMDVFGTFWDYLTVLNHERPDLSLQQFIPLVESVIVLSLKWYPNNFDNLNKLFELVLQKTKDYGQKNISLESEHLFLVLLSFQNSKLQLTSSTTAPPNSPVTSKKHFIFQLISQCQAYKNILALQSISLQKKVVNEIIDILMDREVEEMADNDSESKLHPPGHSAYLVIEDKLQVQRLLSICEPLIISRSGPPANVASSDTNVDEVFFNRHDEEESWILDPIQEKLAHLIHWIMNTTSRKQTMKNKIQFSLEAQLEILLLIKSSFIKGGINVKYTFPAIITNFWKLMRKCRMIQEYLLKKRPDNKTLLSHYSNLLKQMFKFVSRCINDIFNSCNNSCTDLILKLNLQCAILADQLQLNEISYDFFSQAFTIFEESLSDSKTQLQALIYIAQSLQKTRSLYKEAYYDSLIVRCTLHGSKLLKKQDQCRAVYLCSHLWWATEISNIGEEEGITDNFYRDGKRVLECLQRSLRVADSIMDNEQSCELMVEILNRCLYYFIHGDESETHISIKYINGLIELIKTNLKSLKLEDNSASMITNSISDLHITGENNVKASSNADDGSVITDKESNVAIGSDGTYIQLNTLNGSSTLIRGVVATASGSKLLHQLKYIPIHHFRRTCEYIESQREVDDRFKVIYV
The experiment in a line: co-IP.

B1: Δ63-125Chs3-GFP (natural protein)
chain: MTGLNGDDPDDYYLNLNQDEESLLRSRHSVGSGAPHRQGSLVRPERSRLNNPDNPHFYYAQKDEGVAEDEFDKDGDVDNFEESSTQPINKSIKPLRKETNDTLSFWQMYCYFITFWAPAPILAFCGMPKKERQMAWREKVALISVILYIGAIVAFLTFGFTKTVCSSSKLRLKNNEVSTEFVVINGKAYELDTSSRSGIQDVEVDSDTLYGPWSDAGKDASFLFQNVNGNCHNLITPKSNSSIPHDDDNNLAWYFPCKLKNQDGSSKPNFTVENYAGWNCHTSKEDRDAFYGLKSKADVYFTWDGIKNSSRNLIVYNGDVLDLDLLDWLEKDDVDYPVVFDDLKTSNLQGYDLSLVLSNGHERKIARCLSEIIKVGEVDSKTVGCIASDVVLYVSLVFILSVVIIKFIIACYFRWTVARKQGAYIVDNKTMDKHTNDIEDWSNNIQTKAPLKEVDPHLRPKKYSKKSLGHKRASTFDLLKKHSSKMFQFNESVIDLDTSMSSSLQSSGSYRGMTTMTTQNAWKLSNENKAVHSRNPSTLLPTSSMFWNKATSSPVPGSSLIQSLDSTIIHPDIVQQPPLDFMPYGFPLIHTICFVTCYSEDEEGLRTTLDSLSTTDYPNSHKLLMVVCDGLIKGSGNDKTTPEIALGMMDDFVTPPDEVKPYSYVAVASGSKRHNMAKIYAGFYKYDDSTIPPENQQRVPIITIVKCGTPAEQGAAKPGNRGKRDSQIILMSFLEKITFDERMTQLEFQLLKNIWQITGLMADFYETVLMVDADTKVFPDALTHMVAEMVKDPLIMGLCGETKIANKAQSWVTAIQVFEYYISHHQAKAFESVFGSVTCLPGCFSMYRIKSPKGSDGYWVPVLANPDIVERYSDNVTNTLHKKNLLLLGEDRFLSSLMLKTFPKRKQVFVPKAACKTIAPDKFKVLLSQRRRWINSTVHNLFELVLIRDLCGTFCFSMQFVIGIELIGTMVLPLAICFTIYVIIFAIVSKPTPVITLVLLAIILGLPGLIVVITATRWSYLWWMCVYICALPIWNFVLPSYAYWKFDDFSWGDTRTIAGGNKKAQDENEGEFDHSKIKMRTWREFEREDILNRKEESDSFVA
With B1, the “level of coIP relative to wild-type Chs3” value was ~0.25 of the level with wild-type Chs3.
